According to article PMC3052533, “Amino acid changes within the Bunyamwera virus nucleocapsid protein differentially affect the mRNA transcription and RNA replication activities of assembled ribonucleoprotein templates” (The Journal of General Virology, 2011):
Positions count from the first letter of the chain named.

B1: Bunyamwera virus (BUNV) nucleocapsid (N) protein, wild type (natural protein)
chain: MIELEFHDVAANTSSTFDPEVAYANFKRVHTTGLSYDHIRIFYIKGREIKTSLAKRSEWEVTLNLGGWKITVYNTNFPGNRNNPVPDDGLTLHRLSGFLARYLLEKMLKVSEPEKLIIKSKIINPLAEKNGITWNDGEEVYLSFFPGSEMFLGTFRFYPLAIGIYKVQRKEMEPKYLEKTMRQRYMGLEAATWTVSKLTEVQSALTVVSSLGWKKTNVSAAARDFLAKFGINM
notes: nucleocapsid (N) protein of Bunyamwera virus, expressed from plasmid pET-BUN-N (Rodgers et al., 2006); predicted monomer mass 28.8 kDa; also called BUNV N protein; WT
B2: BUNV N protein K55A (natural protein, Bunyamwera virus, UniProt P16495 1-233, looked up)
chain: B1 chain with K55A
notes: nucleocapsid (N) protein of Bunyamwera virus, from modified plasmid pET-BUN-N, single alanine substitution
B3: BUNV N protein K50A (natural protein, Bunyamwera virus, UniProt P16495 1-233, looked up)
chain: B1 chain with K50A
notes: as for B2
B4: BUNV N protein R94A (natural protein, Bunyamwera virus, UniProt P16495 1-233, looked up)
chain: B1 chain with R94A
notes: nucleocapsid (N) protein of Bunyamwera virus, from modified plasmid pET-BUN-N, single alanine substitution; monomers and tetramers equally abundant
B5: BUNV N protein R40A (natural protein, Bunyamwera virus, UniProt P16495 1-233, looked up)
chain: B1 chain with R40A
notes: as for B2
B6: BUNV N protein R101A (natural protein, Bunyamwera virus, UniProt P16495 1-233, looked up)
chain: B1 chain with R101A
notes: as for B2
B7: BUNV N protein K179A (natural protein, Bunyamwera virus, UniProt P16495 1-233, looked up)
chain: B1 chain with K179A
notes: as for B2

Target: the molecule itself
Assay: SEC; Superdex S200 column, purified N proteins analysed immediately following purification; elution compared with molecular mass standards; monomer and tetramer peaks

Protein	stoichiometry N	binding result
B1	4	–
B2	–	binds
B3	–	binds
B4	4	–
B5	–	binds
B6	–	binds
B7	–	binds
